{"source": "the supplement of paper PMC9170038", "system": "MS2 coat protein", "assay": "apparent KD of MS2 coat protein; higher = weaker reporter binding", "details": "Eterna round: R107", "method_in_brief": "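Apparent KD was obtained for each design as the median of normalised binding-curve fits over its clusters. RNA switches transcribed on-chip from Illumina sequencing clusters were titrated with SNAP-549-labelled MS2 coat protein (twofold steps, 0.7 or 1.5 nM to 3 µM) in 100 mM Tris-HCl pH 7.5, 80 mM KCl, 4 mM MgCl2, without or with constant ligand.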", "key": {"[1]": {"details": "input ligand: theophylline 20 uM"}, "[2]": {"details": "input ligand: theophylline 2 mM"}, "[3]": {"details": "input ligand: tryptophan 2.4 mM"}}}
{"sequence": "UUAUAAGUACCGGUCCUCAGAUCCUCAUGACGAGGACCGGUACGGCCGCCACUCGAAACAUGAGGAUCACCCAUGUAAUAACAUU [Brourdmod19]", "values": [{"measurement": "apparent KD of MS2 coat protein", "setting": "input ligand: arginine 13.2 mM", "result": 18.9, "unit": "nM"}, {"measurement": "apparent KD of MS2 coat protein", "setting": "[1]", "result": 28.8, "unit": "nM"}, {"measurement": "apparent KD of MS2 coat protein", "setting": "[2]", "result": 25.6, "unit": "nM"}]}
{"sequence": "UUGGGUUUGUGAAGGAGCGGGAAAGUUUUAUAGUGAAUCCUAACAUGAGGAUCACCCAUGUCCCAGGUAGGUCGCGCGGGUUUGG [12.Q]", "values": [{"measurement": "apparent KD of MS2 coat protein", "setting": "input ligand: arginine 13.2 mM", "result": 240, "unit": "nM"}, {"measurement": "apparent KD of MS2 coat protein", "setting": "input ligand: none", "result": 134, "unit": "nM"}, {"measurement": "apparent KD of MS2 coat protein", "setting": "[1]", "result": 115, "unit": "nM"}, {"measurement": "apparent KD of MS2 coat protein", "setting": "[2]", "result": 144, "unit": "nM"}, {"measurement": "apparent KD of MS2 coat protein", "setting": "[3]", "result": 80.8, "unit": "nM"}]}
{"sequence": "AGCGACAUGCGUGAUACCAGCUACAUGAGGAUCACCCAUGUGAGUAGGAAACUACUGUGUAGCCCUUGGCAGCACAGUGCAUGUC [Exclusion - Theophylline B (Freestyle 25)]", "values": [{"measurement": "apparent KD of MS2 coat protein", "setting": "input ligand: arginine 13.2 mM", "result": 11.4, "unit": "nM"}, {"measurement": "apparent KD of MS2 coat protein", "setting": "[1]", "result": 15.9, "unit": "nM"}, {"measurement": "apparent KD of MS2 coat protein", "setting": "[3]", "result": 10.3, "unit": "nM"}]}
{"sequence": "AACAUGAGGAUCACCCAUGUCCCAUGUGAACGAGGACCGGUACGGCCGCCACUCGAAUAAGGCGGCACAUGAGGAUCACCCACAU [AstrosSSTry#1]", "values": [{"measurement": "apparent KD of MS2 coat protein", "setting": "input ligand: arginine 13.2 mM", "result": 101, "unit": "nM"}, {"measurement": "apparent KD of MS2 coat protein", "setting": "[1]", "result": 223, "unit": "nM"}, {"measurement": "apparent KD of MS2 coat protein", "setting": "[2]", "result": 206, "unit": "nM"}]}
{"sequence": "AUGCUUAUCAGAAGGAGCGUCAUUAACAUGAGGAUCACCCAUGUAACAUUGAAUUCGAUGAGACAGGUAGGUCGCUGAAUAGUAA [SS-ArgB27]", "values": [{"measurement": "apparent KD of MS2 coat protein", "setting": "input ligand: arginine 13.2 mM", "result": 28, "unit": "nM"}, {"measurement": "apparent KD of MS2 coat protein", "setting": "input ligand: none", "result": 45.1, "unit": "nM"}, {"measurement": "apparent KD of MS2 coat protein", "setting": "[1]", "result": 51.5, "unit": "nM"}, {"measurement": "apparent KD of MS2 coat protein", "setting": "[2]", "result": 41.3, "unit": "nM"}, {"measurement": "apparent KD of MS2 coat protein", "setting": "[3]", "result": 37.5, "unit": "nM"}]}
{"sequence": "GGUUAGGUUUUUGAUACCAGCUAUUGGUGUCAUCUGAGGAUCACCCAGGUCUUGUGUUUUAGCCCUUGGCAGCAAAAGUUUAGUC [SSTheo B #28]", "values": [{"measurement": "apparent KD of MS2 coat protein", "setting": "input ligand: arginine 13.2 mM", "result": 72.6, "unit": "nM"}, {"measurement": "apparent KD of MS2 coat protein", "setting": "input ligand: none", "result": 88.4, "unit": "nM"}, {"measurement": "apparent KD of MS2 coat protein", "setting": "[1]", "result": 118, "unit": "nM"}, {"measurement": "apparent KD of MS2 coat protein", "setting": "[2]", "result": 94.1, "unit": "nM"}, {"measurement": "apparent KD of MS2 coat protein", "setting": "[3]", "result": 108, "unit": "nM"}]}
{"sequence": "GAUGAACUAUAUGAUACCAGACAACAUGAGGAUCACCCAUGUGAUUGUCGUCCUCUGCCUGUCCCUUGGCAGCGUAUAGUUUAUC [XTheo B #16]", "values": [{"measurement": "apparent KD of MS2 coat protein", "setting": "input ligand: arginine 13.2 mM", "result": 38.4, "unit": "nM"}, {"measurement": "apparent KD of MS2 coat protein", "setting": "[1]", "result": 87.4, "unit": "nM"}, {"measurement": "apparent KD of MS2 coat protein", "setting": "[3]", "result": 23.4, "unit": "nM"}]}
{"sequence": "UGACAUUGCUGCGAUACCAGACAUGAGGAUCACCCAUGUACCAAGGUACCCGAAAGGAAUGUCCCUUGGCAGCGCAGCAAUGUCU [MAT - Exclusion Theophlline B - Mod of Eli - D18]", "values": [{"measurement": "apparent KD of MS2 coat protein", "setting": "input ligand: arginine 13.2 mM", "result": 10.6, "unit": "nM"}, {"measurement": "apparent KD of MS2 coat protein", "setting": "[1]", "result": 11.6, "unit": "nM"}, {"measurement": "apparent KD of MS2 coat protein", "setting": "[3]", "result": 9.73, "unit": "nM"}]}
{"sequence": "GUUAUAUCAAAAGAUGUAACAGUGGGUGAACGAGGACCGGUACGGCCGCCACUCGGACAUGAGGAUCACCCAUGUCCAUGUGAAA [AstrosExyTryA#14]", "values": [{"measurement": "apparent KD of MS2 coat protein", "setting": "input ligand: arginine 13.2 mM", "result": 15.8, "unit": "nM"}, {"measurement": "apparent KD of MS2 coat protein", "setting": "[1]", "result": 17.5, "unit": "nM"}, {"measurement": "apparent KD of MS2 coat protein", "setting": "[2]", "result": 18.7, "unit": "nM"}]}
{"sequence": "GGGUGGUAGGCGGCCGCCACUGAUUUUCAUUCCUAGAUGACAUGAGGAUCACCCAUGUUUAUGGGCAGGACCGGGCCUGCUGUGG [aaaV]", "values": [{"measurement": "apparent KD of MS2 coat protein", "setting": "input ligand: arginine 13.2 mM", "result": 38.4, "unit": "nM"}, {"measurement": "apparent KD of MS2 coat protein", "setting": "[1]", "result": 64.1, "unit": "nM"}, {"measurement": "apparent KD of MS2 coat protein", "setting": "[2]", "result": 79.9, "unit": "nM"}]}
{"sequence": "GCUGUACCAUGAAGGAGCGCUUUAAUUAUAGAAGAUACAUGAGGAUCACCCAUGUUCCUCGAGCAGGUAGGUCGCAUGGUACAGC [SSAB #18]", "values": [{"measurement": "apparent KD of MS2 coat protein", "setting": "input ligand: arginine 13.2 mM", "result": 25.4, "unit": "nM"}, {"measurement": "apparent KD of MS2 coat protein", "setting": "input ligand: none", "result": 20.3, "unit": "nM"}, {"measurement": "apparent KD of MS2 coat protein", "setting": "[1]", "result": 33, "unit": "nM"}, {"measurement": "apparent KD of MS2 coat protein", "setting": "[2]", "result": 27, "unit": "nM"}, {"measurement": "apparent KD of MS2 coat protein", "setting": "[3]", "result": 22.9, "unit": "nM"}]}
{"sequence": "GAUGAACUAUUCGAUACCAGACCACAUGAGGAUCACCCAUGUGUGUUUCGUCCUUAGCCGGUCCCUUGGCAGCGAAUAGUUUAUC [#28 Exclusion-TheophyllineB]", "values": [{"measurement": "apparent KD of MS2 coat protein", "setting": "input ligand: arginine 13.2 mM", "result": 25.8, "unit": "nM"}, {"measurement": "apparent KD of MS2 coat protein", "setting": "[1]", "result": 30.3, "unit": "nM"}, {"measurement": "apparent KD of MS2 coat protein", "setting": "[3]", "result": 19.4, "unit": "nM"}]}
{"sequence": "UCGGGCCUUCUUUCUUGGCCCGUUACAGAAGGAGCGUCGGAAAUGACAGGUAGGUCGCUGAGAACAUGAGGAUCACCCAUGUAUU [SSAA #14]", "values": [{"measurement": "apparent KD of MS2 coat protein", "setting": "input ligand: arginine 13.2 mM", "result": 16.8, "unit": "nM"}, {"measurement": "apparent KD of MS2 coat protein", "setting": "input ligand: none", "result": 26.4, "unit": "nM"}, {"measurement": "apparent KD of MS2 coat protein", "setting": "[1]", "result": 28.9, "unit": "nM"}, {"measurement": "apparent KD of MS2 coat protein", "setting": "[2]", "result": 25.1, "unit": "nM"}, {"measurement": "apparent KD of MS2 coat protein", "setting": "[3]", "result": 22.1, "unit": "nM"}]}
{"sequence": "AUGUCAUUGGUGUAGCUGUGAAGUGGCGAUACCAGCGUGGAAACACGCCCUUGGCAGCGCCAAAACAUGAGGAUCACCCAUGUUA [#23 Exclusion-TheophyllineA]", "values": [{"measurement": "apparent KD of MS2 coat protein", "setting": "input ligand: arginine 13.2 mM", "result": 19, "unit": "nM"}, {"measurement": "apparent KD of MS2 coat protein", "setting": "[1]", "result": 56.3, "unit": "nM"}, {"measurement": "apparent KD of MS2 coat protein", "setting": "[3]", "result": 22.9, "unit": "nM"}]}
{"sequence": "GGACAUGCAGGAAGGAGCGACACGCAGAAACUGCAAAAUCCUCCACACGAGGAUCACCCGUGUCAGGUAGGUCGCCUGCAUGUCG [ArgXB 15 #Zipper #MS2Left #StaticStem #Blueprint]", "values": [{"measurement": "apparent KD of MS2 coat protein", "setting": "input ligand: arginine 13.2 mM", "result": 88.8, "unit": "nM"}, {"measurement": "apparent KD of MS2 coat protein", "setting": "input ligand: none", "result": 73.3, "unit": "nM"}, {"measurement": "apparent KD of MS2 coat protein", "setting": "[1]", "result": 140, "unit": "nM"}, {"measurement": "apparent KD of MS2 coat protein", "setting": "[2]", "result": 127, "unit": "nM"}, {"measurement": "apparent KD of MS2 coat protein", "setting": "[3]", "result": 110, "unit": "nM"}]}
{"sequence": "GGGCGAGUGGAGCGGCGUGCUCCGCUCCGUCGAGGACCGGUACGGCCGCCACUCGACAUGAGGAUCACCCAUGUGCGAGCUCGCG [#1 Exclusion - Tryptophan A Attempt #13 (HarryS)]", "values": [{"measurement": "apparent KD of MS2 coat protein", "setting": "input ligand: arginine 13.2 mM", "result": 7.39, "unit": "nM"}, {"measurement": "apparent KD of MS2 coat protein", "setting": "input ligand: none", "result": 17.6, "unit": "nM"}, {"measurement": "apparent KD of MS2 coat protein", "setting": "[1]", "result": 27.1, "unit": "nM"}, {"measurement": "apparent KD of MS2 coat protein", "setting": "[2]", "result": 58.6, "unit": "nM"}, {"measurement": "apparent KD of MS2 coat protein", "setting": "[3]", "result": 180, "unit": "nM"}]}
{"sequence": "AUCCUUAAUAGGGUAAAUGGAUAAAGUGAUACCAGUCAAAUACAAGACCCUUGGCAGCACAAGGACAUGAGGAUCACCCAUGUCA [Same State Theophylline A GF21]", "values": [{"measurement": "apparent KD of MS2 coat protein", "setting": "input ligand: arginine 13.2 mM", "result": 20.9, "unit": "nM"}, {"measurement": "apparent KD of MS2 coat protein", "setting": "[1]", "result": 22, "unit": "nM"}, {"measurement": "apparent KD of MS2 coat protein", "setting": "[3]", "result": 21.6, "unit": "nM"}]}
{"sequence": "GUUAUAGACGGAAGGAGCGCGGCCACAUGAGGAUCACCCAUGUAUUGUGUUGGUAAUAGGUCGCAGGUAGGUCGCCGAUUAAUGA [Same State - Arginine B / A]", "values": [{"measurement": "apparent KD of MS2 coat protein", "setting": "input ligand: arginine 13.2 mM", "result": 35.9, "unit": "nM"}, {"measurement": "apparent KD of MS2 coat protein", "setting": "input ligand: none", "result": 55.1, "unit": "nM"}, {"measurement": "apparent KD of MS2 coat protein", "setting": "[1]", "result": 61.7, "unit": "nM"}, {"measurement": "apparent KD of MS2 coat protein", "setting": "[2]", "result": 47.5, "unit": "nM"}, {"measurement": "apparent KD of MS2 coat protein", "setting": "[3]", "result": 34, "unit": "nM"}]}
{"sequence": "UGCAUCAUAAUCAUGUAGGUGCUAGGUGAUACCAGCAUCGAAAGAUGCCCUUGGCAGCACCAACAUGAGGAUCACCCAUGUAAUA [(MT)''-(M)'-(T')-(Theo)-(Ms2)_Design1/22_1]", "values": [{"measurement": "apparent KD of MS2 coat protein", "setting": "input ligand: arginine 13.2 mM", "result": 48.4, "unit": "nM"}, {"measurement": "apparent KD of MS2 coat protein", "setting": "[1]", "result": 186, "unit": "nM"}, {"measurement": "apparent KD of MS2 coat protein", "setting": "[3]", "result": 231, "unit": "nM"}]}
